Laboratory results reported in patent US20250215104A1 (WALDEN BIOSCIENCES, published 2025).

Legend:
[1] = molecular target: T1, human soluble urokinase plasminogen activator receptor (hsuPAR) (human, UniProt Q03405 23-303, limits assumed); experiment: off-rate screen of scFv clones (kdis), Octet BLI
T1 construct: also called human suPAR; rhuPAR-His

[2] = molecular target: T2, cynomolgus soluble urokinase plasminogen activator receptor (cynomolgus suPAR) (cynomolgus, UniProt Q9GK78 23-303, limits assumed); experiment: off-rate screen of scFv clones (kdis), Octet BLI
T2 construct: also called cynomolgus uPAR; cynoPLAUR-His
T2 sequence (Q9GK78 23-303 limits assumed): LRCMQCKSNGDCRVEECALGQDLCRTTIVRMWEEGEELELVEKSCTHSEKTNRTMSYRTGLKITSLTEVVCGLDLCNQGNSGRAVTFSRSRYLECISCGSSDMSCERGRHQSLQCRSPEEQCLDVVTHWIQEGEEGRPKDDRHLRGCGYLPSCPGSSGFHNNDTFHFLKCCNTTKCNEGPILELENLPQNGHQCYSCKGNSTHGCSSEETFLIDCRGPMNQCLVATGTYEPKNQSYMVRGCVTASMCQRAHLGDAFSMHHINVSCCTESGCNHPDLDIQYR

T1 sequence (Q03405 23-303 limits assumed): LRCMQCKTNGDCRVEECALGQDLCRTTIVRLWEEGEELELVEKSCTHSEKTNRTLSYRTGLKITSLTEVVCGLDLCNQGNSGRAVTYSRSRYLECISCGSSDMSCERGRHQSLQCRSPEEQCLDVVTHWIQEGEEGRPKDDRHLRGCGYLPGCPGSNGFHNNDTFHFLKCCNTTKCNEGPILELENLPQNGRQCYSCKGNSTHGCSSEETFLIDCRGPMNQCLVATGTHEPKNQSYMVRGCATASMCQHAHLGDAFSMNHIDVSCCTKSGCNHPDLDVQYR

| Binder | koff [1] | koff [2] |
| --- | --- | --- |
| suPAR_DB04_D09 (scFv, V domains shown, scFv clone from phage display) VH: QVQLVQSGAEVKKPGASVKVSCKASGYTFTAYYMHWVRQAPGQGLEWMGWIDHENGNTIYDQKFQGRVTMTRDTSTSTVYMELSSLRSEDTAVYYCARGYDVDWFVYWGQGTLVTVSS VL: DIQMTQSPSSLSASVGDRVTITCSARSSVSYMYWYQQKPGKAPKLLIYRTSNLASGVPSRFSGSGSGTDFTLTISSLQPEDFATYYCQQYHSYPPTFGGGTKVEIK | 0.00203 s⁻¹ | 0.000206 s⁻¹ |
| suPAR_DB04_C02 (scFv, V domains shown, scFv clone from phage display) VH: QVQLVQSGAEVKKPGASVKVSCKASGNTFIGYYVHWVRQAPGQGLEWMGWIDHENGNTSYDQKFQGRVTMTRDTSTSTVYMELSSLRSEDTAVYYCARGNDVDWFVYWGQGTLVTVSS VL: DIQMTQSPSSLSASVGDRVTITCSARSSVSYMYWYQQKPGKAPKLLIYRTSNLASGVPSRFSGSGSGTDFTLTISSLQPEDFATYYCQQYHSYPPTFGGGTKVEIK | 0.00411 s⁻¹ | 0.000146 s⁻¹ |
| suPAR_DB04_C03 (scFv, V domains shown, scFv clone from phage display) VH: QVQLVQSGAEVKKPGASVKVSCKASGYTFTSYYMHWVRQAPGQGLEWMGWIDPENGSTIYDQKFQGRVTMTRDTSTSTVYMELSSLRSEDTAVYYCASGYDVDWFVYWGQGTLVTVSS VL: DIQMTQSPSSLSASVGDRVTITCSARSSVSYMYWYQQKPGKAPKLLIYRTSNLASGVPSRFSGSGSGTDFTLTISSLQPEDFATYYCQQYHSYPPTFGGGTKVEIK | 0.00368 s⁻¹ | 0.000158 s⁻¹ |
| suPAR_DB04_C04 (scFv, V domains shown, scFv clone from phage display) VH: QVQLVQSGAEVKKPGASVKVSCKASGYTFTGYYMHWVRQAPGQGLEWMGWIDHENGNTSYDQKFQGRVTMTRDTSTSTVYMELSSLRSEDTAVYYCARGYDVDWFVYWGQGTLVTVSS VL: DIQMTQSPSSLSASVGDRVTITCSASQSVSYMYWYQQKPGKAPKLLIYRTSNLASGVPSRFSGSGSGTDFTLTISSLQPEDFATYYCQQYHSYPPTFGGGTKVEIK | 0.00229 s⁻¹ | 0.000384 s⁻¹ |
| suPAR_DB04_C05 (scFv, V domains shown, scFv clone from phage display) VH: QVQLVQSGAEVKKPGASVKVSCKASGHTLNSYYMHWVRQAPGQGLEWMGWIDHENGNTIYDQKFQGRVTMTRDTSTSTVYMELSSLRSEDTAVYYCARGYDVDWFVYWGQGTLVTVSS VL: DIQMTQSPSSLSASVGDRVTITCSARSSVSYMYWYQQKPGKAPKLLIYRTSNLASGVPSRFSGSGSGTDFTLTISSLQPEDFATYYCQQYHSYPPTFGGGTKVEIK | 0.00245 s⁻¹ | 0.000421 s⁻¹ |
| suPAR_DB04_C06 (scFv, V domains shown, scFv clone from phage display) VH: QVQLVQSGAEVKKPGASVKVSCKASGYTFSAYYIHWVRQAPGQGLEWMGWIDHENGNTIYDQKFQGRVTMTRDTSTSTVYMELSSLRSEDTAVYYCARGNDVDWFVYWGQGTLVTVSS VL: DIQMTQSPSSLSASVGDRVTITCSARQSVSYMYWYQQKPGKAPKLLIYRTSNLQSGVPSRFSGSGSGTDFTLTISSLQPEDFATYYCQQYHSYPPTFGGGTKVEIK | 0.00412 s⁻¹ | 4.14e-05 s⁻¹ |
| suPAR_DB04_C07 (scFv, V domains shown, scFv clone from phage display) VH: QVQLVQSGAEVKKPGASVKVSCKASGYTFTSYYMHWVRQAPGQGLEWMGWIDHSNGNTIYDQKFQGRVTMTRDTSTSTVYMELSSLRSEDTAVYYCARGDDVDWFVYWGQGTLVTVSS VL: DIQMTQSPSSLSASVGDRVTITCSARSSVSYMYWYQQKPGKAPKLLIYRTSNLASGVPSRFSGSGSGTDFTLTISSLQPEDFATYYCQQYHSYPPTFGGGTKVEIK | 0.0031 s⁻¹ | 0.000249 s⁻¹ |
| suPAR_DB04_C09 (scFv, V domains shown, scFv clone from phage display) VH: QVQLVQSGAEVKKPGASVKVSCKASGYTFSTYYMQWVRQAPGQGLEWMGWIDPENGSTIYDQKFQGRVTMTRDTSTSTVYMELSSLRSEDTAVYYCARGYDVDWFVYWGQGTLVTVSS VL: DIQMTQSPSSLSASVGDRVTITCSARSSVSYMYWYQQKPGKAPKLLIYRASNLASGVPSRFSGSGSGTDFTLTISSLQPEDFATYYCQQYHSYPPTFGGGTKVEIK | 0.0013 s⁻¹ | 0.00154 s⁻¹ |
| suPAR_DB04_C11 (scFv, V domains shown, scFv clone from phage display) VH: QVQLVQSGAEVKKPGASVKVSCKASGYSFTDYYMHWVRQAPGQGLEWMGWIDPENGSTIYDQKFQGRVTMTRDTSTSTVYMELSSLRSEDTAVYYCARGYDVDWFVYWGQGTLVTVSS VL: DIQMTQSPSSLSASVGDRVTITCSARSSVSYMYWYQQKPGKAPKLLIYRTSNLASGVPSRFSGSGSGTDFTLTISSLQPEDFATYYCQQYHSYPPTFGGGTKVEIK | 0.00562 s⁻¹ | 0.000483 s⁻¹ |
| suPAR_DB04_C12 (scFv, V domains shown, scFv clone from phage display) VH: QVQLVQSGAEVKKPGASVKVSCKASGHTITSYYMHWVRQAPGQGLEWMGWIDHENGSTIYAQKFQGRVTMTRDTSTSTVYMELSSLRSEDTAVYYCARGYDVDWFVYWGQGTLVTVSS VL: DIQMTQSPSSLSASVGDRVTITCRASSSVSYMYWYQQKPGKAPKLLIYRTSNLASGVPSRFSGSGSGTDFTLTISSLQPEDFATYYCQQYHSYPPTFGGGTKVEIK | 0.000626 s⁻¹ | 0.000255 s⁻¹ |
| suPAR_DB04_D03 (scFv, V domains shown, scFv clone from phage display) VH: QVQLVQSGAEVKKPGASVKVSCKASGYTFTSYYMHWVRQAPGQGLEWMGWIDPENGSTIYDQKFQGRVTMTRDTSTSTVYMELSSLRSEDTAVYYCARGYDVDWFVYWGQGTLVTVSS VL: DIQMTQSPSSLSASVGDRVTITCRARQSVSYMYWYQQKPGKAPKLLIYRTSNLASGVPSRFSGSGSGTDFTLTISSLQPEDFATYYCQQYHSYPPTFGGGTKVEIK | 0.00408 s⁻¹ | 0.000353 s⁻¹ |
| suPAR_DB04_D04 (scFv, V domains shown, scFv clone from phage display) VH: QVQLVQSGAEVKKPGASVKVSCKASGYTIKDYYMHWVRQAPGQGLEWMGWIDHENGSTIYAQKFQGRVTMTRDTSTSTVYMELSSLRSEDTAVYYCARGYDVDWFVYWGQGTLVTVSS VL: DIQMTQSPSSLSASVGDRVTITCSARSSVSYMYWYQQKPGKAPKLLIYRTSNLASGVPSRFSGSGSGTDFTLTISSLQPEDFATYYCQQYHSYPPTFGGGTKVEIK | 0.00188 s⁻¹ | 0.000184 s⁻¹ |
| suPAR_DB04_D05 (scFv, V domains shown, scFv clone from phage display) VH: QVQLVQSGAEVKKPGASVKVSCKASGYTFTTYYMHWVRQAPGQGLEWVGWIDPHSGGTNYAQKFQGRVTMTRDTSTSTVYMELSSLRSEDTAVYYCARGYDVDWFVYWGQGTLVTVSS VL: DIQMTQSPSSLSASVGDRVTITCSARSSVSYMYWYQQKPGKAPKLLIYRTSNLASGVPSRFSGSGSGTDFTLTISSLQPEDFATYYCQQYHSYPPTFGGGTKVEIK | 0.004 s⁻¹ | 5.44e-05 s⁻¹ |
| suPAR_DB04_D07 (scFv, V domains shown, scFv clone from phage display) VH: QVQLVQSGAEVKKPGASVKVSCKASGYTFGSYYMHWVRQAPGQGLEWMGWIDHENGNTIYDQKFQGRVTMTRDTSTSTVYMELSSLRSEDTAVYYCARGYDVDWFVYWGQGTLVTVSS VL: DIQMTQSPSSLSASVGDRVTITCRARQSVSYMYWYQQKPGKAPKLLIYRTSNLASGVPSRFSGSGSGTDFTLTISSLQPEDFATYYCQQYHSYPPTFGGGTKVEIK | 0.00217 s⁻¹ | 0.000436 s⁻¹ |
| suPAR_DB04_D08 (scFv, V domains shown, scFv clone from phage display) VH: QVQLVQSGAEVKKPGASVKVSCKASGYTLSGYYMHWVRQAPGQGLEWMGWIDPNSGATNDAPKFQGRVTMTRDTSTSTVYMELSSLRSEDTAVYYCARGYDVDWFVYWGQGTLVTVSS VL: DIQMTQSPSSLSASVGDRVTITCSARSSVSYMYWYQQKPGKAPKLLIYRTSNLASGVPSRFSGSGSGTDFTLTISSLQPEDFATYYCQQYHSYPPTFGGGTKVEIK | 0.00414 s⁻¹ | 0.000343 s⁻¹ |
| suPAR_DB04_D10 (scFv, V domains shown, scFv clone from phage display) VH: QVQLVQSGAEVKKPGASVKVSCKASGYTFTSYYMHWVRQAPGQGLEWMGWIDPEGGNTSYDQKFQGRVTMTRDTSTSTVYMELSSLRSEDTAVYYCATGYDVDWFVYWGQGTLVTVSS VL: DIQMTQSPSSLSASVGDRVTITCSARSSVSYMYWYQQKPGKAPKLLIYRTSNLASGVPSRFSGSGSGTDFTLTISSLQPEDFATYYCQQYHSYPPTFGGGTKVEIK | 0.005 s⁻¹ | 0.000402 s⁻¹ |
| suPAR_DB04_E03 (scFv, V domains shown, scFv clone from phage display) VH: QVQLVQSGAEVKKPGASVKVSCKASGYTFTNYYMHWVRQAPGQGLEWMGWIDHEGGSTIYAQKFQGRVTMTRDTSTSTVYMELSSLRSEDTAVYYCARGYDVDWFVYWGQGTLVTVSS VL: DIQMTQSPSSLSASVGDRVTITCSARSSVSYMYWYQQKPGKAPKLLIYRTSNLASGVPSRFSGSGSGTDFTLTISSLQPEDFATYYCQQYHSYPPTFGGGTKVEIK | 0.00116 s⁻¹ | 0.000224 s⁻¹ |
| suPAR_DB04_E04 (scFv, V domains shown, scFv clone from phage display) VH: QVQLVQSGAEVKKPGASVKVSCKASGYTFTSYYVHWVRQAPGQGLEWMGWIDHENGNTIYDQKFQGRVTMTRDTSTSTVYMELSSLRSEDTAVYYCARGTDVDWFVYWGQGTLVTVSS VL: DIQMTQSPSSLSASVGDRVTITCRARQSVSYMYWYQQKPGKAPKLLIYRTSNLASGVPSRFSGSGSGTDFTLTISSLQPEDFATYYCQQYHSYPPTFGGGTKVEIK | 0.00335 s⁻¹ | 0.000451 s⁻¹ |
| suPAR_DB04_E06 (scFv, V domains shown, scFv clone from phage display) VH: QVQLVQSGAEVKKPGASVKVSCKASGYSFTSHYMHWVRQAPGQGLEWMGWIDHENGNTIYDQKFQGRVTMTRDTSTSTVYMELSSLRSEDTAVYYCARGYDVDWFVYWGQGTLVTVSS VL: DIQMTQSPSSLSASVGDRVTITCRARSSVSYMYWYQQKPGKAPKLLIYRTSNLASGVPSRFSGSGSGTDFTLTISSLQPEDFATYYCQQYHSYPPTFGGGTKVEIK | 0.00564 s⁻¹ | 0.000137 s⁻¹ |
| suPAR_DB04_E07 (scFv, V domains shown, scFv clone from phage display) VH: QVQLVQSGAEVKKPGASVKVSCKASGDTFTSYYIHWVRQAPGQGLEWMGWIDHENGNTIYDQKFQGRVTMTRDTSTSTVYMELSSLRSEDTAVYYCARGYDVDWFVYWGQGTLVTVSS VL: DIQMTQSPSSLSASVGDRVTITCSARSSVSYMYWYQQKPGKAPKLLIYRTSNLASGVPSRFSGSGSGTDFTLTISSLQPEDFATYYCQQYHSYPPTFGGGTKVEIK | 0.00311 s⁻¹ | 0.00023 s⁻¹ |
| suPAR_DB04_E08 (scFv, V domains shown, scFv clone from phage display) VH: QVQLVQSGAEVKKPGASVKVSCKASGYTFTGYYMHWVRQAPGQGLEWMGWIDHENGNTSYAQKFQGRVTMTRDTSTSTVYMELSSLRSEDTAVYYCARGYDVDWFVYWGQGTLVTVSS VL: DIQMTQSPSSLSASVGDRVTITCSARSSVSYMYWYQQKPGKAPKLLIYRTSNLASGVPSRFSGSGSGTDFTLTISSLQPEDFATYYCQQYHSYPPTFGGGTKVEIK | 0.00268 s⁻¹ | 0.000149 s⁻¹ |
